Results taken from PMC11026580.
Where two headings read alike, the source gives them in different places. Values belong to the substance of their own block, whether it stands above or below them.

Legend:
[1] = target: extracellular domain of the human FcαRI (human) (UniProt P24071)
[2] = target: extracellular domain of the human FcαRI (human) (UniProt P24071); remark: listed apart in the source
IgA2 (m2) C2Q = experiment: SEC; analytical size-exclusion chromatography of affinity-purified IgA2 (m2) from small-scale transient transfections; JC co-expressed (LC:HC:JC 1:1:0.5)

Sequence of extracellular domain of the human FcαRI (human) (P24071 22-227): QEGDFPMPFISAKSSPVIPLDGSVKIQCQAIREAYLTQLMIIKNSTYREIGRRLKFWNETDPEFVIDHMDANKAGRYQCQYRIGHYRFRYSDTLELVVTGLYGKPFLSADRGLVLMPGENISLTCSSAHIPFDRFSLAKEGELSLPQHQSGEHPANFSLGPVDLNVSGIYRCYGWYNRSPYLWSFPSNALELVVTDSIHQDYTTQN

Kd [1]: 303 nM
Substance: IgA2 (m2) N2Q (from UniProt P01877)

Kd [2]: 193 nM
Substance: IgA2 (m2) C2Q (from UniProt P01877)

stoichiometry N (IgA2 (m2) C2Q): 2
Substance: IgA2 (m2) C2Q (antibody)
